# Reference: patent publication US20160264649A1
# Key:
# Test in all cases: cell-based or functional assay
# [1] = biological target: HIV-1 MGRM-C-008 Env on pseudovirus (HIV-1)
# [2] = biological target: HIV-1 SC422661.8 (Acute) Env on pseudovirus (HIV-1)
# [3] = biological target: HIV-1 CMU02 Env (HIV-1)
# [4] = biological target: HIV-1 MGRM-D-016 Env (HIV-1)
# [5] = biological target: HIV-1 MGRM-D-013 Env (HIV-1)
# [6] = biological target: HIV-1 MGRM-F1-023 Env (HIV-1)
# [7] = biological target: HIV-1 MGRM-D-011 Env (HIV-1)
# [8] = biological target: HIV-1 MGRM-G-006 Env (HIV-1)
# [9] = biological target: HIV-1 MGRM-AE-008 Env (HIV-1)
# [10] = biological target: HIV-1 92UG024 Env (HIV-1)
# [11] = biological target: aMLV envelope (negative control pseudovirus)
# [12] = biological target: HIV-1 MGRM-D-028 Env (HIV-1)
# [13] = biological target: HIV-1 MGRM-G-009 Env (HIV-1)
# [14] = biological target: HIV-1 98CN006 Env on pseudovirus (HIV-1)
# [15] = biological target: HIV-1 VLGCB3 Env on pseudovirus (HIV-1)
# [16] = biological target: HIV-1 MGRM-D-026 Env (HIV-1)
# [17] = biological target: HIV-1 MGRM-F1-008 Env (HIV-1)
# [18] = biological target: HIV-1 MGRM-F1-016 Env (HIV-1)
# [19] = biological target: HIV-1 MGRM-F1-004 Env (HIV-1)
# [20] = biological target: HIV-1 MGRM-G-017 Env (HIV-1)
# [21] = biological target: HIV-1 JRCSF Env (HIV-1) (UniProt P20871)
# [22] = biological target: HIV-1 MGRM-AE-007 Env (HIV-1)
# [23] = biological target: HIV-1 93IN905 Env on pseudovirus (HIV-1)
# [24] = biological target: HIV-1 MGRM-AE-003 Env (HIV-1)
# [25] = biological target: HIV-1 APV_6 Env on pseudovirus (HIV-1)
# [26] = biological target: HIV-1 MGRM-G-004 Env (HIV-1)
# [27] = biological target: HIV-1 THR0.18 (Acute) Env on pseudovirus (HIV-1)
# [28] = biological target: HIV-1 MGRM-Chronic-B-012 Env on pseudovirus (HIV-1)
# [29] = biological target: HIV-1 93MW959 Env on pseudovirus (HIV-1)
# [30] = biological target: HIV-1 MGRM-D-012 Env (HIV-1)
# [31] = biological target: HIV-1 MGRM-F1-022 Env (HIV-1)
# [32] = biological target: HIV-1 98IN022 Env on pseudovirus (HIV-1)
# [33] = biological target: HIV-1 92UG046 Env (HIV-1)
# [34] = biological target: HIV-1 MGRM-Chronic-B-008 Env on pseudovirus (HIV-1)
# [35] = biological target: HIV-1 MGRM-C-013 Env on pseudovirus (HIV-1)
# [36] = biological target: HIV-1 MGRM-C-007 Env on pseudovirus (HIV-1)
# [37] = biological target: HIV-1 MGRM-C-022 Env on pseudovirus (HIV-1)
# [38] = biological target: HIV-1 TRO.11 (Acute) Env on pseudovirus (HIV-1)
# [39] = biological target: HIV-1 MGRM-Chronic-B-003 Env on pseudovirus (HIV-1)
# [40] = biological target: HIV-1 MGRM-C-009 Env on pseudovirus (HIV-1)
# [41] = biological target: HIV-1 SF162 Env on pseudovirus (HIV-1) (UniProt P19550)
# [42] = biological target: HIV-1 93TH305 Env on pseudovirus (HIV-1)
# [43] = biological target: HIV-1 MGRM-G-013 Env (HIV-1)
# [44] = biological target: HIV-1 LAVIC_18 Env on pseudovirus (HIV-1)
# [45] = biological target: HIV-1 IAVI-C18 Env (HIV-1)
# [46] = biological target: HIV-1 MGRM-D-004 Env (HIV-1)
# [47] = biological target: HIV-1 MGRM-A-007 Env (HIV-1)
# [48] = biological target: HIV-1 MGRM-A-009 Env (HIV-1)
# [49] = biological target: HIV-1 MGRM-A-012 Env (HIV-1)
# [50] = biological target: HIV-1 92UG031 Env (HIV-1)
# [51] = biological target: HIV-1 MGRM-A-004 Env (HIV-1)
# [52] = biological target: HIV-1 MGRM-A-008 Env (HIV-1)
substance,measurement,setting,value
2F5 (antibody),IC50,[1],> 50 µg/mL
same,IC50,[2],> 50 µg/mL
same,"IC50 (µg/ml), pseudovirus neutralization",[3],0.6 µg/mL
same,neutralization IC50,[3],0.38 µg/mL
same,neutralization IC90,[3],12.2 µg/mL
same,"IC50 (µg/ml), pseudovirus neutralization",[4],9.85 µg/mL
same,"IC50 (µg/ml), pseudovirus neutralization",[5],2.12 µg/mL
same,IC50 (pseudovirus neutralization),[6],1.78 µg/mL
same,"IC50 (µg/ml), pseudovirus neutralization",[7],> 50 µg/mL
same,"IC50 (µg/ml), pseudovirus neutralization",[8],1.33 µg/mL
same,"IC50 (µg/ml), pseudovirus neutralization",[9],> 50 µg/mL
same,"IC50 (µg/ml), pseudovirus neutralization",[10],0.95 µg/mL
same,neutralization IC50,[10],1.27 µg/mL
same,neutralization IC90,[10],34.4 µg/mL
same,IC50 (pseudovirus neutralization),[11],> 50 µg/mL
same,"IC50 (µg/ml), pseudovirus neutralization",[12],> 50 µg/mL
same,"IC50 (µg/ml), pseudovirus neutralization",[13],7.21 µg/mL
same,IC50,[14],> 50 µg/mL
same,IC50,[15],> 50 µg/mL
same,"IC50 (µg/ml), pseudovirus neutralization",[16],4.37 µg/mL
same,IC50 (pseudovirus neutralization),[17],1.61 µg/mL
same,IC50 (pseudovirus neutralization),[18],21.5 µg/mL
same,IC50 (pseudovirus neutralization),[19],4.31 µg/mL
same,"IC50 (µg/ml), pseudovirus neutralization",[20],0.6 µg/mL
same,neutralization IC50,[21],3.36 µg/mL
same,neutralization IC90,[21],25.3 µg/mL
same,"IC50 (µg/ml), pseudovirus neutralization",[22],0.07 µg/mL
same,IC50,[23],> 50 µg/mL
same,"IC50 (µg/ml), pseudovirus neutralization",[24],0.24 µg/mL
same,IC50,[25],0.25 µg/mL
same,"IC50 (µg/ml), pseudovirus neutralization",[26],> 50 µg/mL
same,IC50,[27],> 50 µg/mL
same,IC50,[28],17.6 µg/mL
same,IC50,[29],> 50 µg/mL
same,"IC50 (µg/ml), pseudovirus neutralization",[30],1.7 µg/mL
same,IC50 (pseudovirus neutralization),[31],1.26 µg/mL
same,IC50,[32],> 50 µg/mL
same,"IC50 (µg/ml), pseudovirus neutralization",[33],> 50 µg/mL
same,IC50,[34],> 50 µg/mL
same,IC50,[35],18.4 µg/mL
same,IC50,[36],> 50 µg/mL
same,IC50,[37],> 50 µg/mL
same,IC50,[38],> 50 µg/mL
same,IC50,[39],1 µg/mL
same,IC50,[40],> 50 µg/mL
same,IC50,[41],2.52 µg/mL
same,IC50,[42],7.61 µg/mL
same,"IC50 (µg/ml), pseudovirus neutralization",[43],0.59 µg/mL
same,IC50,[44],> 50 µg/mL
same,neutralization IC50,[45],> 50 µg/mL
same,"IC50 (µg/ml), pseudovirus neutralization",[46],2.3 µg/mL
same,neutralization IC50,[47],16.3 µg/mL
same,neutralization IC50,[48],9.4 µg/mL
same,neutralization IC50,[49],2.36 µg/mL
same,neutralization IC50,[50],3.81 µg/mL
same,neutralization IC50,[51],7.49 µg/mL
same,neutralization IC50,[52],> 50 µg/mL
2G12 (antibody),IC50,[1],> 50 µg/mL
same,IC50,[2],0.84 µg/mL
same,"IC50 (µg/ml), pseudovirus neutralization",[3],> 50 µg/mL
same,neutralization IC50,[3],> 50 µg/mL
same,neutralization IC90,[3],> 50 µg/mL
same,"IC50 (µg/ml), pseudovirus neutralization",[4],> 50 µg/mL
same,"IC50 (µg/ml), pseudovirus neutralization",[5],> 50 µg/mL
same,IC50 (pseudovirus neutralization),[6],9.23 µg/mL
same,"IC50 (µg/ml), pseudovirus neutralization",[7],1.5 µg/mL
same,"IC50 (µg/ml), pseudovirus neutralization",[8],> 50 µg/mL
same,"IC50 (µg/ml), pseudovirus neutralization",[9],> 50 µg/mL
same,"IC50 (µg/ml), pseudovirus neutralization",[10],0.42 µg/mL
same,neutralization IC50,[10],0.59 µg/mL
same,neutralization IC90,[10],7.57 µg/mL
same,IC50 (pseudovirus neutralization),[11],> 50 µg/mL
same,"IC50 (µg/ml), pseudovirus neutralization",[12],> 50 µg/mL
same,"IC50 (µg/ml), pseudovirus neutralization",[13],> 50 µg/mL
same,IC50,[14],> 50 µg/mL
same,IC50,[15],7.9 µg/mL
same,"IC50 (µg/ml), pseudovirus neutralization",[16],> 50 µg/mL
same,IC50 (pseudovirus neutralization),[17],> 50 µg/mL
same,IC50 (pseudovirus neutralization),[18],> 50 µg/mL
same,IC50 (pseudovirus neutralization),[19],> 50 µg/mL
same,"IC50 (µg/ml), pseudovirus neutralization",[20],> 50 µg/mL
same,neutralization IC50,[21],0.66 µg/mL
same,neutralization IC90,[21],5.38 µg/mL
same,"IC50 (µg/ml), pseudovirus neutralization",[22],> 50 µg/mL
same,IC50,[23],> 50 µg/mL
same,"IC50 (µg/ml), pseudovirus neutralization",[24],> 50 µg/mL
same,IC50,[25],1.9 µg/mL
same,"IC50 (µg/ml), pseudovirus neutralization",[26],> 50 µg/mL
same,IC50,[27],> 50 µg/mL
same,IC50,[28],0.22 µg/mL
same,IC50,[29],> 50 µg/mL
same,"IC50 (µg/ml), pseudovirus neutralization",[30],> 50 µg/mL
same,IC50 (pseudovirus neutralization),[31],> 50 µg/mL
same,IC50,[32],> 50 µg/mL
same,"IC50 (µg/ml), pseudovirus neutralization",[33],> 50 µg/mL
same,IC50,[34],0.55 µg/mL
same,IC50,[35],> 50 µg/mL
same,IC50,[36],> 50 µg/mL
same,IC50,[37],> 50 µg/mL
same,IC50,[38],0.29 µg/mL
same,IC50,[39],0.06 µg/mL
same,IC50,[40],> 50 µg/mL
same,IC50,[41],1.67 µg/mL
same,IC50,[42],0.55 µg/mL
same,"IC50 (µg/ml), pseudovirus neutralization",[43],> 50 µg/mL
same,IC50,[44],> 50 µg/mL
same,neutralization IC50,[45],> 50 µg/mL
same,neutralization IC90,[45],> 50 µg/mL
same,"IC50 (µg/ml), pseudovirus neutralization",[46],> 50 µg/mL
same,neutralization IC50,[47],> 50 µg/mL
same,neutralization IC50,[48],7.47 µg/mL
same,neutralization IC50,[49],> 50 µg/mL
same,neutralization IC50,[50],> 50 µg/mL
same,neutralization IC50,[51],> 50 µg/mL
same,neutralization IC50,[52],> 50 µg/mL
1496_C09 (PG9) (TCN-109) (antibody),IC50,[2],0.79 µg/mL
same,"IC50 (µg/ml), pseudovirus neutralization",[3],7.69 µg/mL
same,"IC50 (µg/ml), pseudovirus neutralization",[4],0.1 µg/mL
same,"IC50 (µg/ml), pseudovirus neutralization",[5],0.06 µg/mL
same,"IC50 (µg/ml), pseudovirus neutralization",[7],0.06 µg/mL
same,"IC50 (µg/ml), pseudovirus neutralization",[8],0.51 µg/mL
same,"IC50 (µg/ml), pseudovirus neutralization",[9],10.6 µg/mL
same,"IC50 (µg/ml), pseudovirus neutralization",[10],1.91 µg/mL
same,"IC50 (µg/ml), pseudovirus neutralization",[12],4.39 µg/mL
same,"IC50 (µg/ml), pseudovirus neutralization",[13],4.9 µg/mL
same,"IC50 (µg/ml), pseudovirus neutralization",[16],17.5 µg/mL
same,IC50 (pseudovirus neutralization),[18],0.58 µg/mL
same,"IC50 (µg/ml), pseudovirus neutralization",[20],0.03 µg/mL
same,neutralization IC50,[21],< 0.0025 µg/mL
same,neutralization IC90,[21],< 0.0025 µg/mL
same,IC50,[23],0.03 µg/mL
same,IC50,[25],0.12 µg/mL
same,IC50,[27],12.4 µg/mL
same,IC50,[28],0.91 µg/mL
same,IC50,[29],0.04 µg/mL
same,"IC50 (µg/ml), pseudovirus neutralization",[30],9.31 µg/mL
same,IC50 (pseudovirus neutralization),[31],0.06 µg/mL
same,IC50,[32],0.006 µg/mL
same,"IC50 (µg/ml), pseudovirus neutralization",[33],0.64 µg/mL
same,IC50,[34],6.66 µg/mL
same,IC50,[36],0.09 µg/mL
same,IC50,[37],0.19 µg/mL
same,IC50,[38],5.43 µg/mL
same,IC50,[42],2.08 µg/mL
same,IC50,[44],0.1 µg/mL
same,neutralization IC50,[45],0.0535 µg/mL
same,neutralization IC90,[45],0.866 µg/mL
same,"IC50 (µg/ml), pseudovirus neutralization",[46],0.03 µg/mL
same,neutralization IC50,[47],0.37 µg/mL
same,neutralization IC50,[48],0.03 µg/mL
same,neutralization IC50,[49],11.2 µg/mL
same,neutralization IC50,[50],3.08 µg/mL
